Assay results published in publication PMC7905918, “20E-mediated regulation of BmKr-h1 by BmKRP promotes oocyte maturation”.

T1: BmKRP (Bombyx mori, UniProt A0A8R1WHU4 1-518)
T1 sequence: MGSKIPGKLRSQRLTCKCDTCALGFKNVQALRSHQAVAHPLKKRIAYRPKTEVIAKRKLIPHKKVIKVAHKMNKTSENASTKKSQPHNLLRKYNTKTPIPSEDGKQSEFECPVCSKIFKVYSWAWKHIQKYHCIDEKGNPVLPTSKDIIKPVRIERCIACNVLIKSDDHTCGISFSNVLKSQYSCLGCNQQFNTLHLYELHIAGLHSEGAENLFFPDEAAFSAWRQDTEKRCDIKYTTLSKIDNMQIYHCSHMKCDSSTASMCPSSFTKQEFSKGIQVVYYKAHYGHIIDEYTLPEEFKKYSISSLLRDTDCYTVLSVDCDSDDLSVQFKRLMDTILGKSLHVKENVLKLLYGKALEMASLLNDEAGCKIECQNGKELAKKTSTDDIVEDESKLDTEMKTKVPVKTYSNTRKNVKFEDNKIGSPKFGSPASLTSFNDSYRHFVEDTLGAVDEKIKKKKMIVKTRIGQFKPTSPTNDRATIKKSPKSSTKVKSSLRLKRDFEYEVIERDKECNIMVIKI

B1: -248~-217 mutant probe 7 (right flank mutated) (dsDNA)
DNA 1: TTATTAAAACATCCGAAAACGACCGCCGACGG
DNA 2: CCGTCGGCGGTCGTTTTCGGATGTTTTAATAA
B2: -248~-217 mutant probe 6 (left flank mutated) (dsDNA)
DNA 1: GGCGGCCCACATCCGAAAACGCAATAATCATT
DNA 2: AATGATTATTGCGTTTTCGGATGTGGGCCGCC
B3: BmKr-h1 20E CRE -248~-217 WT probe (dsDNA)
DNA 1: TTATTAAAACATCCGAAAACGCAATAATCATT
DNA 2: AATGATTATTGCGTTTTCGGATGTTTTAATAA
B4: -248~-217 mutant probe 5 (both flanks mutated) (dsDNA)
DNA 1: GGCGGCCCACATCCGAAAACGACCGCCGACGG
DNA 2: CCGTCGGCGGTCGTTTTCGGATGTGGGCCGCC
B5: -248~-217 mutant probe 4 (central … region mutated) (dsDNA)
DNA 1: TTATTAACCACGAATCCCCATAAATAATCATT
DNA 2: AATGATTATTTATGGGGATTCGTGGTTAATAA

Assays:
Details in all cases: protein: ivt; label: 5' biotin; blunt
BmKRP [1] = target: T1, BmKRP; assay: EMSA; Discussion calls it weaker (citing Fig. 3f); EMSA: 1x binding buffer (LightShift kit), 2.5% glycerol, 0.05% NP-40, 50 mM KCl, 5 mM MgCl2, 4 mM EDTA, 1 ug poly dI-dC, 20 fmol probe, room temperature 20 min; pull-down: 10 mM HEPES pH 7.6, 100 mM K-glutamate, 80 mM KCl, 10 mM Mg acetate, 4 C
BmKRP [2] = target: T1, BmKRP; assay: EMSA; competed by 50-fold unlabeled probe; EMSA: 1x binding buffer (LightShift kit), 2.5% glycerol, 0.05% NP-40, 50 mM KCl, 5 mM MgCl2, 4 mM EDTA, 1 ug poly dI-dC, 20 fmol probe, room temperature 20 min; pull-down: 10 mM HEPES pH 7.6, 100 mM K-glutamate, 80 mM KCl, 10 mM Mg acetate, 4 C
BmKRP [3] = target: T1, BmKRP; assay: EMSA; EMSA: 1x binding buffer (LightShift kit), 2.5% glycerol, 0.05% NP-40, 50 mM KCl, 5 mM MgCl2, 4 mM EDTA, 1 ug poly dI-dC, 20 fmol probe, room temperature 20 min; pull-down: 10 mM HEPES pH 7.6, 100 mM K-glutamate, 80 mM KCl, 10 mM Mg acetate, 4 C

| Binder | binding result (BmKRP [1]) | binding result (BmKRP [3]) | other results |
| --- | --- | --- | --- |
| B1 | binds | – | – |
| B2 | binds | – | – |
| B3 | – | – | binding result (BmKRP [2]): binds |
| B4 | – | no binding | – |
| B5 | – | binds | – |
